This is an account of results in patent publication US20170233490A1 (Hoffmann-La Roche, published 2017).

Assay [1] concerns the target T1, human HER1 Extracellular Domain (ECD) (human, UniProt P00533 25-645).
T1 construct: also called Her1 ECD; HER1-ECD
The experiment in a line: SPR Biacore T200, antibody captured, 25 C. The protocol:
(§1) A Biacore T200 instrument (GE Healthcare) was mounted with a CMS series sensor. The sensor was normalized in HBS-ET buffer (10 mM HEPES pH 7.4, 150 mM NaCl, 3 mM EDTA, 0.05% w/v Tween 20) according to the manufacturer's instructions. The sample buffer was the system buffer supplemented with 1 mg/ml CMD (Carboxymethyldextran, Sigma #86524). The system operated at 25° C. 6500 RU RAM-Fcγ (relative units of Fcγ-fragment RamIgG, GE Healthcare) were immobilized according to the manufacturer's instructions using amine coupling EDC/NHS chemistry on all four flow cells. The sensor was deactivated using 1M ethanolamine. […] Concentration dependent kinetics were measured. […] All analytes were injected for 5 min association time and 10 min dissociation time at 100 μl/min flow rate. The sensor capture system was regenerated by a 3 min injection at 10 μl/min of 10 mM glycine pH 1.7. Where possible kinetic data was evaluated using the Biacore T200 evaluation software.
A general note: Surface plasmon resonance follows binding to a sensor surface in real time, without labels.

Assay [2] has as its target T2, TtSlyDcas.
T2 construct: scaffold without hairpin insert, negative control
T2 chain: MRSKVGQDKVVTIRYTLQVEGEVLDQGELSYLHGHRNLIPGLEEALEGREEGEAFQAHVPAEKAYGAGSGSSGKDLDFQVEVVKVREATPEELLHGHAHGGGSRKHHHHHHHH
The experiment in a line: SPR Biacore T200, antibody captured, 25 C. The protocol: as §1

Assay [3] has as its target T3, HER4 ECD-HRG complex (human, UniProt Q15303 26-651).
T3 construct: HER4 ECD preincubated with a 5-fold molar excess of Heregulin
T3 sequence 1: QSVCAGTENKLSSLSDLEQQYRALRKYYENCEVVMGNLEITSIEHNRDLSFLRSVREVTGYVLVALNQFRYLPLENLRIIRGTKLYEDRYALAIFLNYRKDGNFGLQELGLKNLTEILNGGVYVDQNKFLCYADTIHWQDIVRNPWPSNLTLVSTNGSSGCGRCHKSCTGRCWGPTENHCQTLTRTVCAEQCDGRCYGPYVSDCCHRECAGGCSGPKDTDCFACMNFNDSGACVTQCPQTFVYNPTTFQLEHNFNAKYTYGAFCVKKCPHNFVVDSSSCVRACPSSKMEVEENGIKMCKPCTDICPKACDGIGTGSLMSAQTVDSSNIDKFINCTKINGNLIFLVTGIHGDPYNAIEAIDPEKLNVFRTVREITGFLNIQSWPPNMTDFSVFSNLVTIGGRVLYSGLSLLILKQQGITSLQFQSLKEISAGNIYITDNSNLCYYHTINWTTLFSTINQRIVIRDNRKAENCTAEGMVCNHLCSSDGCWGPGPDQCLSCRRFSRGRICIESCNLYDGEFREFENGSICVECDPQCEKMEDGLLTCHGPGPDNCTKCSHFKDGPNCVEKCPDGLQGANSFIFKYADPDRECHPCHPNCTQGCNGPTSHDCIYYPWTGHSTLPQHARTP
T3 sequence 2: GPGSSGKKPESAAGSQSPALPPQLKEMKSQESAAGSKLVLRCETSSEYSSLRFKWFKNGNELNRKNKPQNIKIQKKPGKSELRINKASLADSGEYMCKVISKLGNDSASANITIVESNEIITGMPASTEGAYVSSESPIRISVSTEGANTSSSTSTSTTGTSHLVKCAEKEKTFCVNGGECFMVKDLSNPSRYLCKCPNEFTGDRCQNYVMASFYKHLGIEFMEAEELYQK
The experiment in a line: SPR Biacore T100; reference: HER4-ECD without Heregulin.

The target in assay [4] is T4, TgSlyDΔIF.
T4 construct: scaffold without hairpin insert, negative control
T4 chain: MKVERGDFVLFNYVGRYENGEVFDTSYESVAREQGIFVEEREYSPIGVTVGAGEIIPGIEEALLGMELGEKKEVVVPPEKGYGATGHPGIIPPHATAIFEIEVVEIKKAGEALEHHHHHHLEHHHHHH
The experiment in a line: ELISA, coated antigen 0.5 µg/ml, hybridoma supernatant. The protocol: For the ELISA the screening an antigen down format was used. […] Hybridoma Supernatant was added to the plates and incubated for 1 h at room temperature. Bound antibody was detected with a HRP-labeled F(ab′)₂ goat anti-mouse Fcγ (Dianova) and ABTS (Roche) was used as a HRP-substrate.
On the technique in general: An ELISA detects its analyte on a solid surface through an enzyme-linked reagent.

For assay [5], the target named is T5, TtSlyD-FKBP-Her3.
T5 construct: N-terminal Met present or not; also called thermo SlyD-Her3; ttSlyD-Her3
T5 chain: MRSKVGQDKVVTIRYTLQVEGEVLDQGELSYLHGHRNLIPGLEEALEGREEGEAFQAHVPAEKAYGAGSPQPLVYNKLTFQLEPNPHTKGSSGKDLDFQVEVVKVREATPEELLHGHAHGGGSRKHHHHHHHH
As to the kind of experiment: SPR Biacore 4000, antibody captured, analyte 150 nM, 25 C. The protocol:
(§2) Prior to their application the hybridoma culture supernatants were diluted 1:5 in instrument buffer. The diluted mixtures were injected at a flow rate of 30 μl/min for 2 min. The antibody capture level (CL) in response units was monitored. Immediately thereafter the respective antigen was injected at a flow rate of 30 μl/min for 3 min association time. Thereafter, the antibody-antigen complex dissociation signal was recorded for 5 min. The sensor was regenerated by injecting a 10 mM glycine-HCl solution (pH 1.7) for 2 min at a flow rate of 30 μl/min. The recorded signal shortly before the end of the injection of the antigen was denoted as binding late (BL) in response units. The recorded signal shortly before the end of the recording of the dissociation is denoted as stability late (SL) in response units. The dissociation rate constants were determined calculated The antibody-antigen complex stability in minutes was calculated with the following formula: ln(2)/60*kd. The Molar Ratio was calculated with the formula: MW (antibody)/MW(antigen)*BL (antigen)/CL (antibody).
(§3) Binding Late (BL) represents the response units at the end of the analyte injection. The amount of antibody captured as a ligand on the sensor surface is measured as Capture Level (CL) in response units. Together with the information of the molecular weights of the tested analytes, the antibody and the analyte in solution, the Molar Ratio can be calculated. […] Then, the Molar Ratio is also an indicator for the valence mode of analyte binding. The maximum valence can be MR=2 for an antibody binding two analytes, one with each Fab valence.

Assay [6] addresses T6, human HER3 Extracellular Domain (ECD) (human, UniProt P21860 20-643).
T6 construct: human recombinant, 68 kDa; 'closed' conformation without ligand; also called Her3 ECD; Her-3 ECD
Described as above. The protocol:
as §2, §3

B1: anti-HER3/HER4 antibody M-05-74 (antibody, V domains shown)
VH: QVQLQQSGAELAKPGASVKMSCKTSGYTLTDYWIHWVKQRPGQGLEWIGYINPYTGYTESNQKFKDKATLTADKSSNTAYIQLSSLTSEDSAVYYCARPYYYGDYWGQGTTLTVSS
VL: QIVLTQSPAIMSASPGERVTITCSASSSVSYMHWFQQKPGTSPKLLIYSTSNLASGVPARFSGSGSGTSYSLTISRMEAEDAATYYCQQRSSYPFTFGSGTKLEIK
notes: murine monoclonal IgG from hybridoma (supernatant or purified), bivalent; also called M-074; M-5-74
The term koff denotes the rate constant with which the complex falls apart. On to B1, for which the results for the binding result in assay [1], in assay [2] and in assay [4] were “no binding (tested: up to 90 nM)”, “no binding (tested: up to 90 nM)” and “no binding”, respectively. Also, the “MR (Molar Ratio)” value in assay [2] was found to be 0; in assay [5], 1.1; in assay [6], 0.5. Moreover, the “ratio MR (+Heregulin)/MR (-Heregulin)” value in assay [3] was 6 fold. Moreover, the “ratio ka (Her4-ECD-HRG)/ka (Her4-ECD)” value in assay [3] amounted to 23.9 fold. In addition, the koff in assay [5] is 0.00012 s⁻¹; in assay [6], less than 1e-05 s⁻¹.
